# Source: patent US20240247080A1, “GLP1/GIP/NPY2 RECEPTOR TRIPLE AGONISTS” (Boehringer Ingelheim International GmbH, priority 2022, published 2024)
# Positions count from the first letter of the chain named. Starred links: 1 amine or outer side, 2 acyl side, 3 side chain; linkers in the order of their positions; H or OH if unused. Non-standard residues stand in square brackets, D forms with d. Groups on a side chain read outwards from the residue. No end group written: not given here. *: point of attachment. C20 diacid = O=C(O)CCCCCCCCCCCCCCCCCCC(=O)*; C18 diacid = O=C(O)CCCCCCCCCCCCCCCCC(=O)*; γGlu = O=C(O)[C@H](CCC(=O)[*:2])N[*:1]; εLys = N[C@@H](CCCCN[*:1])C(=O)[*:2]; AEEA = NCCOCCOCC(=O)O; Aib = CC(C)(N)C(=O)O
# T1: GIP receptor (human (printed as hGIPR), UniProt P48546 22-466)
# T1 sequence (looked up): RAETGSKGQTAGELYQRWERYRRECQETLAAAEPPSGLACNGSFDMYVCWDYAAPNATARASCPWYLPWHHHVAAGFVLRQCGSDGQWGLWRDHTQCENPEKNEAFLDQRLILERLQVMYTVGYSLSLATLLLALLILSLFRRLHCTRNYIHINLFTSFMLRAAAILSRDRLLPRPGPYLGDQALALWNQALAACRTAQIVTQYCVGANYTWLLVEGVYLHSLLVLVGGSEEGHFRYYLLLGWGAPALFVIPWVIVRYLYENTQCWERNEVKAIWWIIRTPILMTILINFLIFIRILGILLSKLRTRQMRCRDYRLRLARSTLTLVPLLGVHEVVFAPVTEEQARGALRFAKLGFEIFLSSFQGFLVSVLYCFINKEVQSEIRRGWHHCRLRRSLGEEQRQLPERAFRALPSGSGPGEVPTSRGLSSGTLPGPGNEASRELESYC
# T2: NPY2 receptor (human (printed as hNPY2R), UniProt P49146 1-381)
# T2 sequence (looked up): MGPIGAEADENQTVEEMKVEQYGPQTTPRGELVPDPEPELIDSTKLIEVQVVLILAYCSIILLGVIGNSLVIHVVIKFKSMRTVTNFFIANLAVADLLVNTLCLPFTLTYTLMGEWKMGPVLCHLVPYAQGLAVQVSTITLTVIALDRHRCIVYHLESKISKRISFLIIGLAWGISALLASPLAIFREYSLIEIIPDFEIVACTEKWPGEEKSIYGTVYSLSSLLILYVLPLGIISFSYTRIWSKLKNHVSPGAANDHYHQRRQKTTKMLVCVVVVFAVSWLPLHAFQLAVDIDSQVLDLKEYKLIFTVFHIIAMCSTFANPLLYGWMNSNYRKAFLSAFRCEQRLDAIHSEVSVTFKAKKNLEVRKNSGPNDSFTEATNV
# B1: Compound 194 (peptide)
# peptide: Y[Aib]EGTFTSDYSI[Aib]LEKQAQ[Aib]EFVQWLIK([γGlu-γGlu-γGlu-γGlu-C20 diacid])GGPSEGASLRHYYNWLTRQRY-NH2
# modifications: also: TFA salt
# B2: Compound 195 (peptide)
# peptide: YXEGTFTSDYSIXLEKQAQXAFVEWLIKGGPSSGASLRHYYNLLTRQRY
# modifications: Aib at 2, 13, 20; K28 side chain carries C20DA-gGlu-gGlu-gGlu-gGlu-gGlu-gGlu-eLys; C-terminal amide
# B3: Compound 196 (peptide)
# peptide: B2 peptide with E24Q, S32E, S33E, L43W
# modifications: Aib at 2, 13, 20; K28 side chain carries C18DA-E-E-E-E-E-E-eLys (SEQ ID NO: 643); C-terminal amide
# B4: Compound 197 (peptide)
# peptide: B2 peptide with S36L, L43W
# modifications: Aib at 2, 13, 20; K28 side chain carries C20DA-gGlu-gGlu-gGlu-gGlu-gGlu-gGlu-eLys; C-terminal amide
# B5: Compound 198 (peptide)
# peptide: Y[Aib]EGTFTSDYSI[Aib]LEKQAQ[Aib]EFVEWLIKGGPSSGASLRHYYNWLTRQRY-NH2
# modifications: not fully specified (residue 28); also: TFA salt
# B6: Compound 199 (peptide)
# peptide: Y[Aib]EGTFTSDYSI[Aib]LE[Aib]QAQ[Aib]AFVEWLIKGGPSSGASLRHYYNWLTRQRY-NH2
# modifications: not fully specified (residue 28); also: TFA salt
# B7: Compound 200 (peptide)
# peptide: Y[Aib]EGTFTSDYSI[Aib]LEKQAE[Aib]AFVQWLIK([εLys-γGlu-γGlu-γGlu-γGlu-γGlu-C20 diacid])GGPSEGASLRHYYNWLTRQRY-NH2
# modifications: also: TFA salt
# B8: Compound 201 (peptide)
# peptide: Y[Aib]EGTFTSDYSI[Aib]LEKQAQ[Aib]EFVEWLIKGGPSSGASLRHYYNWLTRQRY-NH2
# modifications: not fully specified (residue 28); also: TFA salt
# B9: Compound 202 (peptide)
# peptide: Y[Aib]EGTFTSDYSI[Aib]LEKQAQ[Aib]EFVQWLIK([γGlu-γGlu-γGlu-γGlu-C18 diacid])GGPSEGASLRHYYNWLTRQRY-NH2
# modifications: also: TFA salt
# B10: Compound 203 (peptide)
# peptide: Y[Aib]EGTFTSDYSI[Aib]LEKQAQ[Aib]AFVEWLIKGGPSYYASLRHYYNWLTRQRY-NH2
# modifications: not fully specified (residue 28); also: TFA salt
# B11: Compound 204 (peptide)
# peptide: Y[Aib]EGTFTSDYSI[Aib]LEKQAQ[Aib]AFVEWLIKGGPSSGASLRHYYNW[dD]TRQRY-NH2
# modifications: not fully specified (residue 28); also: TFA salt
# B12: Compound 205 (peptide)
# peptide: Y[Aib]EGTFTSDYSI[Aib]LEKQAQ[Aib]EFVEWLIK([AEEA-AEEA-γGlu-γGlu-γGlu-γGlu-C20 diacid])GGPSSGASLRHYYNWLTRQRY-NH2
# modifications: also: TFA salt
# B13: Compound 206 (peptide)
# peptide: Y[Aib]EGTFTSDYSI[Aib]LEKQAQ[Aib]AFVEWLIKGGPEEPASLRHYYNWLTRQRY-NH2
# modifications: not fully specified (residue 28); also: TFA salt
# B14: Compound 207 (peptide)
# peptide: Y[Aib]EGTFTSDYSI[Aib]LEKQAQ[Aib]EFVQWLIKGGPSEGASLRHYYNWLTRQRY-NH2
# modifications: not fully specified (residue 28); also: TFA salt
# B15: Compound 208 (peptide)
# peptide: B2 peptide with L43W, Q47X
# modifications: Aib at 2, 13, 20; bHGln (beta-homo-L-glutamine) at 47; K28 side chain carries C20DA-gGlu-gGlu-gGlu-gGlu-gGlu-gGlu-eLys; C-terminal amide
# B16: Compound 209 (peptide)
# peptide: B2 peptide with K16L, L43W
# modifications: Aib at 2, 13, 20; K28 side chain carries C20DA-gGlu-gGlu-gGlu-gGlu-gGlu-gGlu-eLys; C-terminal amide
# B17: Compound 210 (peptide)
# peptide: B2 peptide with R38L, L43W
# modifications: Aib at 2, 13, 20; K28 side chain carries C20DA-gGlu-gGlu-gGlu-gGlu-gGlu-gGlu-eLys; C-terminal amide
# B18: Compound 211 (peptide)
# peptide: B2 peptide with X20D, L43W
# modifications: Aib at 2, 13; D-Asp at 20; K28 side chain carries C20DA-gGlu-gGlu-gGlu-gGlu-gGlu-gGlu-eLys; C-terminal amide
# B19: Compound 212 (peptide)
# peptide: Y[Aib]EGTFTSDYSI[Aib]LEKQAQ[Aib]AFVEWLIKGGPSSGVSLRHYYNWLTRQRY-NH2
# modifications: not fully specified (residue 28); also: TFA salt
# B20: Compound 213 (peptide)
# peptide: B2 peptide with N42X, L43W
# modifications: Aib at 2, 13, 20, 42; K28 side chain carries C20DA-gGlu-gGlu-gGlu-gGlu-gGlu-gGlu-eLys; C-terminal amide
# B21: Compound 214 (peptide)
# peptide: B2 peptide with L43W
# modifications: Aib at 2, 13, 20; D-Tyr at 49; K28 side chain carries C20DA-gGlu-gGlu-gGlu-gGlu-gGlu-gGlu-eLys; C-terminal amide
# Columns and labels:
# Assay in all cases: cell-based or functional assay
# GLP-1 receptor = GLP-1 receptor (human (printed as hGLP1R), UniProt P43220 24-463)
# GIP receptor = target: T1, GIP receptor
# NPY2 receptor = target: T2, NPY2 receptor
Binder,EC50 hGLP1R 0.5% hP (CreLuc) (GLP-1 receptor),EC50 hGLP1R 100% hP (CreLuc) (GLP-1 receptor),EC50 hGIPR 0.5% hP (CreLuc) (GIP receptor),EC50 hGIPR 100% hP (CreLuc) (GIP receptor),EC50 hNPY2R 0.5% hP (CreLuc) (NPY2 receptor),EC50 hNPY2R 100% hP (CreLuc) (NPY2 receptor)
B1,0.29 nM,14.2 nM,0.2 nM,1.83 nM,13.8 nM,93.7 nM
B2,0.13 nM,1.9 nM,0.25 nM,1.42 nM,26.1 nM,137 nM
B3,0.2 nM,13.6 nM,0.25 nM,3.68 nM,25.2 nM,152 nM
B4,0.31 nM,6.06 nM,0.43 nM,3.61 nM,42.6 nM,158 nM
B5,0.47 nM,15.8 nM,0.26 nM,5.01 nM,13.1 nM,69.9 nM
B6,1.26 nM,13.8 nM,0.94 nM,5.5 nM,30 nM,106 nM
B7,0.48 nM,25.8 nM,0.37 nM,3.56 nM,12.1 nM,64.3 nM
B8,0.28 nM,10.4 nM,0.49 nM,1.03 nM,16.3 nM,31 nM
B9,0.21 nM,10.4 nM,0.26 nM,1.81 nM,12.9 nM,64.5 nM
B10,0.33 nM,27 nM,0.5 nM,12.4 nM,9.07 nM,54.1 nM
B11,0.12 nM,3.14 nM,0.35 nM,2.88 nM,> 99.9 nM,> 999 nM
B12,0.44 nM,12.3 nM,0.33 nM,1.87 nM,10.6 nM,37.7 nM
B13,0.43 nM,17.2 nM,0.25 nM,2.61 nM,13.4 nM,61.7 nM
B14,0.36 nM,12.7 nM,0.63 nM,1.66 nM,11 nM,50.3 nM
B15,0.11 nM,1.51 nM,0.07 nM,0.81 nM,> 100 nM,> 1000 nM
B16,0.48 nM,16.7 nM,0.81 nM,8.57 nM,35.2 nM,171 nM
B17,0.19 nM,3.39 nM,0.28 nM,2.3 nM,54.1 nM,430 nM
B18,0.74 nM,25.9 nM,0.85 nM,9.79 nM,11.2 nM,56.3 nM
B19,0.11 nM,3.69 nM,0.24 nM,1.83 nM,13.5 nM,122 nM
B20,0.16 nM,3.03 nM,0.34 nM,1.53 nM,> 100 nM,> 1000 nM
B21,0.19 nM,2.65 nM,0.23 nM,1.81 nM,> 99.9 nM,283 nM
